# Laboratory results: the RNAGym collection of RNA variant scans (doi:10.7554/elife.90254)
# B1: LINE1-full (parent)
# chain: UACGUAGGUGGUUUUCCCCUGAUAGUGCUAAGGGGGCCUGGAAGUUUGGACUGGGCAGAGCUCAACACAGCGUGGCAAAGUGGCUGUGGCUAGACUGCCUCUCUGGAUUCCUCGUCACUCAGCAGGGCAUCUCUGAGAGAAAUGCC
# Variants of: B1
# Assay: self-cleavage, relative activity (ratio to wild type); higher = more cleavage; in vitro, sequencing; the parent is a self-cleaving ribozyme
row,Variant,self-cleavage
1,A59G A65G,0.11
2,A59G A67G,0.08
3,A59G A69G,0.1
4,A59G A77G,0.15
5,A59G A78G,0.06
6,A59G A79G,0.07
7,A59G A92G,0.04
8,A59G A94G,0.23
9,A59G A94U,0.07
10,A59G A107U,0.04
11,A59G A117U,0.08
12,A59G A121C,0.09
13,A59G A121G,0.23
14,A59G A121U,0.08
15,A59G A124U,0.14
16,A59G A129G,0.07
17,A59G A136G,0.07
18,A59G A138U,0.12
19,A59G A140G,0.09
20,A59G A140U,0.09
21,A59G A141G,0.08
22,A59G A141U,0.2
23,A59G A142G,0.07
24,A59G C61G,0

row,Variant,self-cleavage
1,A59G C63U,0.05
2,A59G C71A,0.06
3,A59G C76A,0.08
4,A59G C95U,0.14
5,A59G C110U,0.1
6,A59G C116A,0.04
7,A59G C116U,0.07
8,A59G C118U,0.02
9,A59G C133A,0.04
10,A59G C133U,0.08
11,A59G C146U,0.12
12,A59G G70C,0.04
13,A59G G75A,0.04
14,A59G G82A,0.02
15,A59G G86A,0.07
16,A59G G86U,0.03
17,A59G G89A,0.01
18,A59G G89U,0.02
19,A59G G93U,0.03
20,A59G G114C,0.03
21,A59G G126A,0.12
22,A59G G127A,0.07
23,A59G G144A,0.12
24,A59G U73C,0.07

row,Variant,self-cleavage
1,A59G U81A,0.1
2,A59G U81C,0.09
3,A59G U91A,0.09
4,A59G U91C,0.11
5,A59G U96A,0.07
6,A59G U104A,0.14
7,A59G U109C,0.17
8,A59G U112A,0.09
9,A59G U112C,0.13
10,A59G U132A,0.06
11,A59G U134A,0.08
12,A59G U143A,0.08
13,A59U A64G,0.09
14,A59U A65G,0.03
15,A59U A67U,0.1
16,A59U A69U,0.04
17,A59U A79G,0.83
18,A59U A117U,0.8
19,A59U A129C,1.15
20,A59U A129G,0.86
21,A59U A129U,0.51
22,A59U A136G,1.1
23,A59U A138C,1.23
24,A59U A138G,0.83

row,Variant,self-cleavage
1,A59U A138U,0.88
2,A59U A140G,0.89
3,A59U A141G,0.96
4,A59U A141U,1.03
5,A59U A142C,1.03
6,A59U A142G,1.08
7,A59U C63A,0.02
8,A59U C71U,0.64
9,A59U C95U,0.19
10,A59U C99U,0.46
11,A59U C103U,0.5
12,A59U G75A,0.51
13,A59U G114A,0.54
14,A59U G127A,0.65
15,A59U U62A,0.05
16,A59U U62C,0.06
17,A59U U62G,0.04
18,A59U U73C,1.27
19,A59U U81A,1.53
20,A59U U81C,0.87
21,A59U U87C,0.22
22,A59U U96C,0.24
23,A59U U104A,0.81
24,A59U U112A,0.83

row,Variant,self-cleavage
1,A59U U112C,1.51
2,A59U U115A,0.8
3,A59U U119C,0.6
4,A59U U130A,0.74
5,A59U U132C,0.71
6,A59U U134C,0.92
7,A59U U143A,0.75
8,G60A,0.02
9,G60A A64G,0.04
10,G60A A65U,0.05
11,G60A A67G,0.08
12,G60A A69G,0.05
13,G60A A69U,0.03
14,G60A A78G,0.04
15,G60A A78U,0.02
16,G60A A79G,0.05
17,G60A A92G,0.03
18,G60A A117G,0.11
19,G60A A124U,0.02
20,G60A A129U,0.02
21,G60A A136G,0.02
22,G60A A140U,0.03
23,G60A A141G,0.02
24,G60A A142G,0.04

row,Variant,self-cleavage
1,G60A C99A,0.05
2,G60A G72A,0.01
3,G60A U62C,0.04
4,G60A U81A,0.02
5,G60A U81C,0.03
6,G60A U85C,0.01
7,G60A U91C,0
8,G60A U104C,0.07
9,G60A U132C,0.03
10,G60A U143A,0.05
11,G60C,0.05
12,G60C U102C,0.06
13,G60C U109C,0.1
14,G60C U115C,0.02
15,G60C U134A,0.07
16,G60U,0.01
17,G60U A79G,0.05
18,G60U A117G,0.04
19,G60U A121G,0
20,G60U U62C,0.08
21,G60U U85C,0.03
22,G60U U91C,0.01
23,G60U U100A,0.02
24,C61A,0.04

row,Variant,self-cleavage
1,C61A A79G,0.02
2,C61A A129U,0.03
3,C61A A140G,0.05
4,C61A U81C,0.04
5,C61A U104C,0.04
6,C61A U130A,0.06
7,C61G,0.06
8,C61G A67U,0.04
9,C61G A77G,0.07
10,C61G A129C,0.03
11,C61G C145U,0.03
12,C61U,0.04
13,C61U A64U,0.06
14,C61U A65C,0.03
15,C61U A77U,0.03
16,C61U A79G,0.01
17,C61U A107G,0.03
18,C61U A140G,0.03
19,C61U A141G,0.05
20,C61U G82A,0.02
21,C61U G106A,0.02
22,C61U G114U,0.01
23,C61U U62G,0.01
24,C61U U73A,0.02

row,Variant,self-cleavage
1,C61U U73G,0.16
2,C61U U81A,0.02
3,C61U U87C,0.03
4,C61U U100A,0.01
5,C61U U112G,0.04
6,U62A A65C,0.07
7,U62A A69G,0.02
8,U62A A69U,0.05
9,U62A A78G,0.05
10,U62A A79U,0.03
11,U62A A92G,0.07
12,U62A A92U,0.03
13,U62A A117C,0.05
14,U62A A117G,0.08
15,U62A A121U,0.06
16,U62A A124G,0.02
17,U62A A129G,0.06
18,U62A A136G,0.03
19,U62A A136U,0.14
20,U62A A138G,0.06
21,U62A A138U,0.06
22,U62A A141G,0.05
23,U62A A142G,0.02
24,U62A C66U,0.01

row,Variant,self-cleavage
1,U62A C84U,0.04
2,U62A C99A,0.03
3,U62A C103A,0.04
4,U62A C110U,0.08
5,U62A C120U,0.02
6,U62A C128U,0.03
7,U62A G72A,0.01
8,U62A G72C,0.03
9,U62A G82A,0.03
10,U62A G83A,0.05
11,U62A G86A,0.05
12,U62A G93U,0.03
13,U62A G144A,0.05
14,U62A U73C,0.02
15,U62A U81A,0.05
16,U62A U81C,0.04
17,U62A U85A,0.02
18,U62A U85C,0.08
19,U62A U85G,0
20,U62A U104A,0.04
21,U62A U104C,0.1
22,U62A U115C,0.04
23,U62A U119A,0.04
24,U62A U130A,0.03

row,Variant,self-cleavage
1,U62A U134A,0.07
2,U62A U143C,0.05
3,U62A U143G,0.08
4,U62C A64C,0
5,U62C A64U,0.05
6,U62C A65U,0.01
7,U62C A69U,0.03
8,U62C A77G,0.08
9,U62C A77U,0.03
10,U62C A94C,0.07
11,U62C A94G,0.11
12,U62C A107U,0.06
13,U62C A121G,0.1
14,U62C A121U,0.04
15,U62C A124U,0.05
16,U62C A129G,0.06
17,U62C A129U,0.01
18,U62C A136C,0.1
19,U62C A136U,0.05
20,U62C A138U,0.01
21,U62C A140U,0.04
22,U62C A141U,0.03
23,U62C A142G,0.06
24,U62C C66A,0.02

row,Variant,self-cleavage
1,U62C C76U,0.07
2,U62C C90U,0.05
3,U62C C95U,0.03
4,U62C C98A,0.03
5,U62C C98U,0.02
6,U62C C99U,0.04
7,U62C C103A,0.04
8,U62C C110A,0.05
9,U62C C111A,0.02
10,U62C C113G,0.07
11,U62C C118U,0.03
12,U62C C123G,0.07
13,U62C C123U,0.01
14,U62C C128U,0.03
15,U62C C145U,0
16,U62C C146U,0.03
17,U62C G70U,0
18,U62C G74A,0.04
19,U62C G83U,0.03
20,U62C G88U,0.04
21,U62C G89A,0.01
22,U62C G93U,0.03
23,U62C G97C,0.06
24,U62C G114A,0.05

row,Variant,self-cleavage
1,U62C G122A,0.04
2,U62C G122C,0.03
3,U62C G126C,0.01
4,U62C G126U,0.04
5,U62C G127A,0.06
6,U62C G137A,0.17
7,U62C U73A,0.03
8,U62C U73G,0.06
9,U62C U85G,0
10,U62C U87A,0.04
11,U62C U87C,0.05
12,U62C U91G,0
13,U62C U96C,0.06
14,U62C U100C,0.09
15,U62C U102A,0.04
16,U62C U104A,0.05
17,U62C U104C,0.07
18,U62C U109A,0.03
19,U62C U109C,0.08
20,U62C U112C,0.05
21,U62C U115A,0.04
22,U62C U115C,0.1
23,U62C U119A,0.07
24,U62C U119C,0.07

row,Variant,self-cleavage
1,U62C U130C,0.06
2,U62C U132A,0.05
3,U62C U134A,0.05
4,U62C U134C,0.05
5,U62C U143A,0.06
6,U62C U143C,0.06
7,U62G A67G,0.09
8,U62G A77G,0.07
9,U62G A136G,0
10,U62G A138G,0.09
11,U62G C63U,0.07
12,U62G U73C,0
13,U62G U87A,0.1
14,U62G U87G,0
15,U62G U108C,0.07
16,U62G U115G,0.14
17,U62G U130C,0.11
18,C63A A65G,0.02
19,C63A A79G,0.12
20,C63A A94G,0.08
21,C63A A121U,0
22,C63A A129G,0.09
23,C63A A129U,0.06
24,C63A A140G,0

row,Variant,self-cleavage
1,C63A U73A,0.06
2,C63A U81A,0.06
3,C63A U104C,0.07
4,C63A U130C,0.05
5,C63U A69G,0.17
6,C63U A79G,0.58
7,C63U A107G,0.45
8,C63U A129G,0.3
9,C63U A141G,0.36
10,C63U U73G,0.21
11,C63U U87A,0.07
12,C63U U91C,0.18
13,C63U U91G,0.04
14,C63U U100C,0.99
15,C63U U100G,0.35
16,C63U U112C,0.29
17,C63U U119G,0.37
18,C63U U132A,0.46
19,C63U U132C,0.35
20,C63U U143A,0.44
21,C63U U143C,0.3
22,A64C A65G,0.19
